This is an account of results in paper PMC6412629, “β-Galactosidase from Lactobacillus helveticus DSM 20075: Biochemical Characterization and Recombinant Expression for Applications in Dairy Industry” (International Journal of Molecular Sciences, 2019).

The term Km denotes the substrate concentration at which the rate is half of its maximum. As usually defined, the Vmax is the rate approached at saturating substrate. In general, kcat refers to the maximal rate divided by the concentration of active sites. The kcat/Km is the second-order rate constant that governs catalysis at low substrate concentration.

Substrate in this series: O=[N+]([O-])c1ccccc1O[C@@H]1O[C@H](CO)[C@H](O)[C@H](O)[C@H]1O
The series can be described thus: purified protein. The series is classed as biochemical, Lactobacillus helveticus. The note with it: 50 mM sodium phosphate pH 6.5, 30 °C, oNPG 0.5-22 mM, substrate inhibition seen.

B1: recombinant β-galactosidase from L. helveticus (EcoliBL21Lhβ-gal), LacLM (Lactobacillus helveticus; Q7WTB4:Q2E) (protein)
chain 1: MEANINWLDNPEVFRVNQLPAHSDHPFFRDYREWQKQHSSYQQSLNGKWKFHFSANPMDRPQDFYQRDFDSSNFDSIPVPSEIELSNYTQNQYINVLFPWEGKIFRRPAYALDPNDHEEGSFSKGADNTVGSYLKRFDLSSALIGKDVHIKFEGVEQAMYVWLNGHFVGYAEDSFTPSEFDLTPYIQDKDNLLAVEVFKHSTASWLEDQDMFRFSGIFRSVELLGIPATHLMDMDLKPRVADNYQDGIFNLKLHFIGKKAGSFHLLVKDIKGHTLLEKNEDIKENVQINNEKFENVHLWNNHDPYLYQLLIEVYDEQQNLLELIPFQFGFRRIEISPEKVVLLNGKRLIINGVNRHEWDAKRGRSITMSDMTTDINTFKENNINAVRTCHYPNQIPWYYLCDQNGIYVMAENNLESHGTWQKMGEIEPSDNVPGSIPQWKEAVIDRARINYETFKNHTSILFWSLGNESYAGDNIIAMNEFYKSHDDTRLVHYEGVVHRPELKDKISDVESCMYLPPKKVEEYLQNDPPKPFMECEYMHDMGNSDGGMGSYIKLLDKYPQYFGGFIWDFIDQALLVHDEISGHDVLRYGGDFDDRHSDYEFSGDGLMFADRTPKPAMQEVRYYYGLHK
chain 2: MDYTNNQLHIIYGDATLGVNGKDFQYIFSYERGGLESLKVHGKEWLYRVPTPTFWRATTDNDRGSGFNLKAAQWLGADMFTKCTDIHLKVDRHDFAELPIAPFNNKFSNHEYAKSAEISFTYQTLTTPATNAKIIYNIDDVGHIKVTMRYYGKKGLPPLPVIGIRLIMPTAATGFDYEGLSGETYPDRMAGAKEGKFHIDGLPVTEYLVPQENGMHMQTKKLTINRETTQNNVDRTNEKFSLSIQQAEKPFNFSCLPYTAEELENATHIEELPLVRRTVLVIAGAVRGVGGIDSWGTDVESAYHINPELDHEFSFILN
notes: overlapping lacLM genes in pET-21d(+) (NcoI/XhoI); C-terminal His-tag (vector), follows lacM end; E. coli BL21 Star (DE3), HisTrap purified; heterodimer ~109 kDa
For B1, the Km stood at 1400 ± 300 µM, the Vmax stood at 476 µmol/min/mg, the kcat is 865 ± 120 s⁻¹ and the kcat/Km was 618000 M⁻¹ s⁻¹.
